Measured values taken from patent US20210025886A1 (Alexion, published 2021).

Biological target: T1, complement fragment C3a (Complement Technologies cat # A118) (human, UniProt P01024 672-748)
T1 construct: domain: C3a; also called purified C3a
Test: TR-FRET sandwich, purified C3a titrated from 66.6 nM, antibodies 50 nM each
Method: Labeled antibodies were then used to detect C3a in a sample that also contained intact C3 and C3b fragments. […] For the detection assay, complement C3 and fragments C3a and C3b were purchased from Complement Technologies (cat # A113c, A118, and A114, respectively). They were aliquoted and stored at −80° C. Each complement protein was titrated individually or as a mixture in assay buffer (10 mM HEPES pH 7.4, 0.1% BSA) at final concentrations of 66.6 nM serially diluted. Detection antibodies were combined in assay buffer to make a C3a detection mixture at final concentrations of 50 nM each in assay. Then, 15 μl of the appropriate C3 reagent was added to the appropriate wells of a white 384 well Optiplate (Perkin Elmer Cat. #600-7290). To each well, 15 μl antibody detection mix was then added. The plate was spun at 4000 RPM for 20 seconds and read on a Paradigm Spectramax instrument using the Cisbio htrf cartridge (excite at 340 nm and emit at 615 nm and 665 nm). The plate was read periodically and the signal calculated by dividing the 665 signal by the 615 signal and multiplying by 10000.

T1 sequence (P01024 672-748 limits assumed): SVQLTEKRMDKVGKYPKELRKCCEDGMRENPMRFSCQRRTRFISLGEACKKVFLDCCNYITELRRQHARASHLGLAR

B1: C3a antibody YHP133 (antibody, human IgG1, kappa, V domains shown)
VH: EVQLQQSGAELVRPGASVKLSCTASGFNIKDSLIHWVKQRPEQGLEWIGWIDPDDGETKYAPKFQDKATITADTSSNTAYLQFSSLTSEDTAIYYCAGRSGEGYFDYWGQGTTVTVSS
VL: DIVMTQSPATLSVTPGDRVSLSCRASQSISDYLHWYQQKSHESPRLLIKYASQSISGIPSRFSGSGSGSDFTLSINSVEPEDVGVYYCQNGHSFPLTFGAGTKVEIKR
modifications: labeled with d2 dye (Cisbio d2 labeling kit); site not stated
notes: Synthesized and purified according to standard procedures; used d2-labeled in the FRET assays; also called the other C3a antibody; acceptor antibody
B1: binds.
